These results are taken from US20250026823A1.

Assay [1] concerns the target extracellular domain of CLEC12A (amino acids 75 to 275) coupled to a His-tag (Sino Biological, cat.no. 11896-H07H) (UniProt Q5QGZ9). The experiment in a line: ELISA, extracellular domain of CLEC12A coated at 2 µg/ml. Background: In an ELISA, binding on a coated surface is turned into a signal by an enzyme label.
For assay [2], the target named is CLEC12A expressed on cells (CLEC12A-transfected CHO cells; HL60 cells) (UniProt Q5QGZ9). The experiment in a line: flow cytometry on CLEC12A-transfected CHO cells.
Chain of CLEC12A expressed on cells (CLEC12A-transfected CHO cells; HL60 cells) (Q5QGZ9 whole entry): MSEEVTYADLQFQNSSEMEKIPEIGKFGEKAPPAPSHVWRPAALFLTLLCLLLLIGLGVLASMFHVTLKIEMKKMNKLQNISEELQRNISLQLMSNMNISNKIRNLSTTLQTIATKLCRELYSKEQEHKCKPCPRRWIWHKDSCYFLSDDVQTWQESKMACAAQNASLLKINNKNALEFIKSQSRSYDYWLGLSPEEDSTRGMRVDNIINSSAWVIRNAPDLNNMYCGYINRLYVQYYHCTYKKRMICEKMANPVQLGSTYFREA
The target is the same in assay [3]. Nature of the assay: flow cytometry on HL60 cells. In general terms: A flow cytometer gives signals particle by particle.

Chain of extracellular domain of CLEC12A (amino acids 75 to 275) coupled to a His-tag (Sino Biological, cat.no. 11896-H07H) (Q5QGZ9 65-265 limits assumed): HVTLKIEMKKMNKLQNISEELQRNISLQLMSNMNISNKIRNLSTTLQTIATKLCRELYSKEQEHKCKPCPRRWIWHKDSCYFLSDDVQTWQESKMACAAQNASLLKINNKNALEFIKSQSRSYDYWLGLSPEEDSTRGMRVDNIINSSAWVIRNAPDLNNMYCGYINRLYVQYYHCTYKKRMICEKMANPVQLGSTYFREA

“irrelevant IgG1 isotype control mAb (antibody)” came in with an optical density in assay [1] of 0.127. In addition, the mean fluorescent intensity in assay [2] was determined as 289; in assay [3], 116.
